Results published in patent US20050084844A1.
Values joined by “and” are separate entries in the source; they are usually repeats but may differ in a detail not shown here. Equal entries are not always repeated.

Tests used:
[1] = molecular target: active TGFβ generated by positive B9F clones (rat); assay: cell-based or functional assay
[2] = molecular target: endogenous latent TGFβ secreted by B9F cells (latent TGFβ1, 2 and 3) (rat); assay: cell-based or functional assay

Substance | luciferase activity of TMLC co-culture with positive clones, with against without the TGFβ inhibitor (LAP) (fraction of the value without inhibitor) [1] | rightward shift in GFP fluorescence of B9F reporter cells (percent of cells in the bright gate) [2] [%]
Recombinant simian TGFβ1 LAP (from UniProt P09533 30-278) | 0.33 and 0.5 | –
integrin ανβ6 on B9F reporter cells (retrovirally expressed β6-integrin subunit paired with the endogenously expressed αν-integrin subunit) (receptor) | – | 48
integrin ανβ8 on B9F reporter cells (retrovirally expressed β8-integrin subunit paired with the endogenously expressed αν-integrin subunit) (receptor) | – | 25
